Data as given in patent US20230331828A1.

How the values were obtained:
Aβ1-42 fibrils (human) = assay: competition ELISA; plate coated with fibril Aβ42; competitor hBP-biotin; IC50 of test divided by IC50 of hBP
[1] = biological target: Aβ plaques in APPxPS1 mouse brain (human) (UniProt P05067); assay: in vivo target engagement; APPxPS1 mice dosed 3 mg/kg SC weekly for three weeks; anti-human IgG IHC of cerebral cortex, % stained area
[2] = biological target: Aβ plaques in APPxPS1 mouse brain (human) (UniProt P05067); assay: in vivo target engagement; APPxPS1 mice dosed 10 mg/kg SC weekly for three weeks; anti-human IgG IHC of cerebral cortex, % stained area

Chain of Aβ1-42 fibrils (human) (peptide, as listed by the source): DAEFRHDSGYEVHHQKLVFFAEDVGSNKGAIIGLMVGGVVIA
Chain of Aβ plaques in APPxPS1 mouse brain (human) (P05067 672-713): as the sequence (peptide, as listed by the source) above

Row | Binder | IC50 ratio (test:hBP) (Aβ1-42 fibrils (human)) | Plaque Binding (% ROI) [1] [% ROI] | Plaque Binding (% ROI) [2] [% ROI]
1 | h2727 (antibody, V domains shown) VH: EVQLLESGGGLVQPGGSLRLSCAASGFTFSNYGMSWVRQAPGKGLEWVASIRSGSGRTYYSDNVKGRFTISRDNSKNTLYLQMNSLRAEDTAVYYCVRYDHYSGSSDYWGQGTLVTVSS VL: DVVMTQSPLSLPVTPGEPASISCKSSQSLLDYDGKTYLNWLLQKPGQSPQRLIYKVSNRDSGVPDRFSGSGSGTDFTLKISRVEAEDVGVYYCWQGTHFPRSFGQGTKVEIK | 3.06 | – | –
2 | h49k3G (antibody, V domains shown) VH: EVQLLESGGGLVQPGGSLRLSCAASGFTFSNFGMSWVRQAPGKGLEWVASVRSGGGRTYYSDNVKGRFTISRDNSKNTLYLQMNSLRAEDTAVYYCVRYDHYSGTSDYWGQGTLVTVSS VL: DVVMTQSPLSLPVTLGEPASISCKSSQSLLDSDGKTYLNWLLQKPGQSPQRLIYKVSNRDSGVPDRFSGSGSGTDFTLKISRVEAEDVGVYYCWQGTHFPRTFGQGTKVEIK | 2.16 | – | –
3 | h2926 (antibody, V domains shown) VH: EVQLLESGGGLVQPGGSLRLSCAASGFTFSNFGMSWVRQAPGKGLEWVASVRSGSGRTYYSDNVKGRFTISRDNSKNTLYLQMNSLRAEDTAVYYCVRYDHYTGTSDYWGQGTLVTVSS VL: DVVMTQSPLSLPVTPGEPASISCKSSQSLLDYDGKTYLNWLLQKPGQSPQRLIYKVSNRDSGVPDRFSGSGSGTDFTLKISRVEAEDVGVYYCWQGTHFPRTFGQGTKVEIK | 0.99 | – | –
4 | h2826 (antibody, V domains shown) VH: EVQLLESGGGLVQPGGSLRLSCAASGFTFSNFGMSWVRQAPGKGLEWVASVRSGSGRTYYSDNVKGRFTISRDNSKNTLYLQMNSLRAEDTAVYYCVRYDHYSGTSDYWGQGTLVTVSS VL: DVVMTQSPLSLPVTPGEPASISCKSSQSLLDYDGKTYLNWLLQKPGQSPQRLIYKVSNRDSGVPDRFSGSGSGTDFTLKISRVEAEDVGVYYCWQGTHFPRTFGQGTKVEIK | 1.1 | – | –
5 | h2731 (antibody, V domains shown) VH: EVQLLESGGGLVQPGGSLRLSCAASGFTFSNYGMSWVRQAPGKGLEWVASIRSGSGRTYYSDNVKGRFTISRDNSKNTLYLQMNSLRAEDTAVYYCVRYDHYSGSSDYWGQGTLVTVSS VL: DVVMTQSPLSLPVTLGEPASISCKSSQSLLDYDGKTYLNWLLQKPGQSPQRLIYRVTNRDTGVPDRFSGSGSGTDFTLKISRVEAEDVGVYYCWQGTHFPRSFGQGTKVEIK | – | 0.07 | 0.079

The next lines start with the values.

Row | IC50 ratio (test:hBP) (Aβ1-42 fibrils (human)) | Plaque Binding (% ROI) [1] [% ROI] | Plaque Binding (% ROI) [2] [% ROI] | Binder
6 | 1.18 | – | – | h3818G (antibody, V domains shown) VH: EVQLLESGGGLVQPGGSLRLSCAASGFTFANYGMSWVRQAPGKGLEWVASVRSGGSRTYYSDNVKGRFTISRDNSKNTLYLQMNSLRAEDTAVYYCVRYDHYSGSSDYWGQGTLVTVSS VL: DVVMTQSPLSLPVTLGEPASISCKSSQSLMDTDGKTYLNWLLQKPGQSPQRLIYKVSNRESGVPDRFSGSGSGTDFTLKISRVEAEDVGVYYCWQGTHFPRTFGQGTKVEIK
7 | 1.16 | – | – | h2929 (antibody, V domains shown) VH: EVQLLESGGGLVQPGGSLRLSCAASGFTFSNFGMSWVRQAPGKGLEWVASVRSGSGRTYYSDNVKGRFTISRDNSKNTLYLQMNSLRAEDTAVYYCVRYDHYTGTSDYWGQGTLVTVSS VL: DVVMTQSPLSLPVTPGEPASISCRSSQSLVDYDGKTYLNWLLQRPGQSPQRLIYKVSNRDSGVPDRFSGSGSGTDFTLKISRVEAEDVGVYYCWQGSHFPRSYGQGTKVEIK
8 | 1.6 | – | – | h2927 (antibody, V domains shown) VH: EVQLLESGGGLVQPGGSLRLSCAASGFTFSNFGMSWVRQAPGKGLEWVASVRSGSGRTYYSDNVKGRFTISRDNSKNTLYLQMNSLRAEDTAVYYCVRYDHYTGTSDYWGQGTLVTVSS VL: DVVMTQSPLSLPVTPGEPASISCKSSQSLLDYDGKTYLNWLLQKPGQSPQRLIYKVSNRDSGVPDRFSGSGSGTDFTLKISRVEAEDVGVYYCWQGTHFPRSFGQGTKVEIK
9 | 2.69 | – | – | h4917G (antibody, V domains shown) VH: EVQLLESGGGLVQPGGSLRLSCAASGFTFSNFGMSWVRQAPGKGLEWVASVRSGGGRTYYSDNVKGRFTISRDNSKNTLYLQMNSLRAEDTAVYYCVRYDHYSGTSDYWGQGTLVTVSS VL: DVVMTQSPLSLPVTLGEPASISCKSSQSLLDSDGKTYLNWLLQKPGQSPQRLIYKVTNRESGVPDRFSGSGSGTDFTLKISRVEAEDVGVYYCWQGTHFPRSFGQGTKVEIK
10 | 1.01 | – | – | h4921G (antibody, V domains shown) VH: EVQLLESGGGLVQPGGSLRLSCAASGFTFSNFGMSWVRQAPGKGLEWVASVRSGGGRTYYSDNVKGRFTISRDNSKNTLYLQMNSLRAEDTAVYYCVRYDHYSGTSDYWGQGTLVTVSS VL: DVVMTQSPLSLPVTLGEPASISCKSSQSLLDSDGKTYLNWLLQKPGQSPQRLIYRVTNRDTGVPDRFSGSGSGTDFTLKISRVEAEDVGVYYCWQGTHFPRTFGQGTKVEIK
